Values joined by “and” are separate entries in the source; they are usually repeats but may differ in a detail not shown here. Identical values can stand only once.
Target: the molecule itself
Experiment: SEC

B1: human diacylglycerol O-acyltransferase-1 (enzyme, UniProt O75907 1-488, looked up)
chain: MGDRGSSRRRRTGSRPSSHGGGGPAAAEEEVRDAAAGPDVGAAGDAPAPAPNKDGDAGVGSGHWELRCHRLQDSLFSSDSGFSNYRGILNWCVVMLILSNARLFLENLIKYGILVDPIQVVSLFLKDPYSWPAPCLVIAANVFAVAAFQVEKRLAVGALTEQAGLLLHVANLATILCFPAAVVLLVESITPVGSLLALMAHTILFLKLFSYRDVNSWCRRARAKAASAGKKASSAAAPHTVSYPDNLTYRDLYYFLFAPTLCYELNFPRSPRIRKRFLLRRILEMLFFTQLQVGLIQQWMVPTIQNSMKPFKDMDYSRIIERLLKLAVPNHLIWLIFFYWLFHSCLNAVAELMQFGDREFYRDWWNSESVTYFWQNWNIPVHKWCIRHFYKPMLRRGSSKWMARTGVFLASAFFHEYLVSVPLRMFRLWAFTGMMAQIPLAWFVGRFFQGNYGNAAVWLSLIIGQPIAVLMYVHDYYVLNYEAPAAEA
stoichiometry N: 2 and 4

From publication doi:10.1101/2020.01.06.896332 (bioRxiv, 2020)
